What all share (assay): cell-based or functional assay
Assay [1] deals with T1, cynomolgus monkey RXFP1 receptor (cynomolgus monkey).
T1 sequence: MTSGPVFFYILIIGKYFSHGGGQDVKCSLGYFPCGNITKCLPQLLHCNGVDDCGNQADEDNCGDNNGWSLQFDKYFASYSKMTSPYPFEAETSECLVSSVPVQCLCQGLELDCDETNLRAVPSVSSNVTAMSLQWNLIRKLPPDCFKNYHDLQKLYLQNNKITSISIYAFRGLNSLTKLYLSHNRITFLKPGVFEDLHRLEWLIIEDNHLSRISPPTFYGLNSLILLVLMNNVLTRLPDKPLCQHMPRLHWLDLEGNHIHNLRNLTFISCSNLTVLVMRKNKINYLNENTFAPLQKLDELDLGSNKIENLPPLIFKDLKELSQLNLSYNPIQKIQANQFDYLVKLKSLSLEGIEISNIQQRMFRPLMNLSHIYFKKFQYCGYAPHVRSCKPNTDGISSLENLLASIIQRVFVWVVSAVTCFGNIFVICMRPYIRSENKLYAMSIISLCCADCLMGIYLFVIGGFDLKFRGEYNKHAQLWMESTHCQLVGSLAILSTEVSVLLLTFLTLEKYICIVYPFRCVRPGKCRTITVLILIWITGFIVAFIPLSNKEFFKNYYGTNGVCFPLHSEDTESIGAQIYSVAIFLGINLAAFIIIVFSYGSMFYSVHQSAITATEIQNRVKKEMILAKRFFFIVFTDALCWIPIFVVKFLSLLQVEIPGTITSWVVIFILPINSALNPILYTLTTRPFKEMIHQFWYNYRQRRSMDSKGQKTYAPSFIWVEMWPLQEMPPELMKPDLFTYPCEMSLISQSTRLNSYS

For a further assay, the target named is dog RXFP1 receptor (dog).
Assay [2] deals with T2, human RXFP1 receptor (human) (UniProt Q9HBX9).
T2 sequence (looked up): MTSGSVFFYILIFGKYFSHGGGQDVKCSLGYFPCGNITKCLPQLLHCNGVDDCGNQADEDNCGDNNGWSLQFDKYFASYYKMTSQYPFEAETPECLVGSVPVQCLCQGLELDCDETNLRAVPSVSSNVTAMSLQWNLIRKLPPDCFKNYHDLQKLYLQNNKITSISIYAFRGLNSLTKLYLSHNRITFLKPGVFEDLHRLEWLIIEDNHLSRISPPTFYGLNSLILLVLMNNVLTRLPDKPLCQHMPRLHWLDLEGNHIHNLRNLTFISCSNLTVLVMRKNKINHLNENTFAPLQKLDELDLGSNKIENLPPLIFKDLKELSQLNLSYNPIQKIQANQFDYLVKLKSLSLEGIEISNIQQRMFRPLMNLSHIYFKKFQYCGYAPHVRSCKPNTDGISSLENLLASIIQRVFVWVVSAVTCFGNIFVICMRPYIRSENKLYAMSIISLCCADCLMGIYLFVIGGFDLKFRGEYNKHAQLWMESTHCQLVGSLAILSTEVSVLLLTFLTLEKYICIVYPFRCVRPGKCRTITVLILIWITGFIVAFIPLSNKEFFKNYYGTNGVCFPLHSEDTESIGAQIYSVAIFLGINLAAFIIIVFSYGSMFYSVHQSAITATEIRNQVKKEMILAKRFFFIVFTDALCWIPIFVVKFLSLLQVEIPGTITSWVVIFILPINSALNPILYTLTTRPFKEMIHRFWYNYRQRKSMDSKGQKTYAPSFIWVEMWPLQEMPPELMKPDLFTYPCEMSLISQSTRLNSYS

Assay [3] has as its target human RXFP2 receptor (human) (UniProt Q8WXD0).
The target of assay [4] is T3, mouse RXFP1 receptor (mouse) (UniProt Q6R6I7).
T3 sequence (looked up): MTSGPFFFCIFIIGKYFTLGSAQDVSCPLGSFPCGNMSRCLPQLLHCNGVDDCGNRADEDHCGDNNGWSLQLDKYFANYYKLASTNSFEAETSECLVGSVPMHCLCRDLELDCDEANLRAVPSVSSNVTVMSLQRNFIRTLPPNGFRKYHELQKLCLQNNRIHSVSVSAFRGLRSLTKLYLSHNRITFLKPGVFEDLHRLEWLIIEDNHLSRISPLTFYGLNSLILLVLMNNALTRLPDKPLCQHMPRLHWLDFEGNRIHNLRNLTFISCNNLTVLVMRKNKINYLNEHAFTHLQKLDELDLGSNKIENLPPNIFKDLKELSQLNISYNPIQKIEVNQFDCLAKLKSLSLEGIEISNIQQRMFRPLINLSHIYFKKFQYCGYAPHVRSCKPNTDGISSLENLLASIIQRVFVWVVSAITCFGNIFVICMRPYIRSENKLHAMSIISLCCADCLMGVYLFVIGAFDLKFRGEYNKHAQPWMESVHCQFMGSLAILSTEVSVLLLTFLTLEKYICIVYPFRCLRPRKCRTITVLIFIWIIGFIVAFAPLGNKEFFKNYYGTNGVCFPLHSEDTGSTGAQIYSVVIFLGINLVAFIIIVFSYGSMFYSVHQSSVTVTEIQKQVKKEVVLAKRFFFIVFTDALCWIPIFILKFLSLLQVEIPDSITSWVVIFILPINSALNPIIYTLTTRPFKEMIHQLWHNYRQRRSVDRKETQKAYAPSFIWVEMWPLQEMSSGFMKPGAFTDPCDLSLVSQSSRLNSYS

A further assay concerns the target T4, rat RXFP1 receptor (rat) (UniProt Q6R6I6).
T4 sequence (looked up): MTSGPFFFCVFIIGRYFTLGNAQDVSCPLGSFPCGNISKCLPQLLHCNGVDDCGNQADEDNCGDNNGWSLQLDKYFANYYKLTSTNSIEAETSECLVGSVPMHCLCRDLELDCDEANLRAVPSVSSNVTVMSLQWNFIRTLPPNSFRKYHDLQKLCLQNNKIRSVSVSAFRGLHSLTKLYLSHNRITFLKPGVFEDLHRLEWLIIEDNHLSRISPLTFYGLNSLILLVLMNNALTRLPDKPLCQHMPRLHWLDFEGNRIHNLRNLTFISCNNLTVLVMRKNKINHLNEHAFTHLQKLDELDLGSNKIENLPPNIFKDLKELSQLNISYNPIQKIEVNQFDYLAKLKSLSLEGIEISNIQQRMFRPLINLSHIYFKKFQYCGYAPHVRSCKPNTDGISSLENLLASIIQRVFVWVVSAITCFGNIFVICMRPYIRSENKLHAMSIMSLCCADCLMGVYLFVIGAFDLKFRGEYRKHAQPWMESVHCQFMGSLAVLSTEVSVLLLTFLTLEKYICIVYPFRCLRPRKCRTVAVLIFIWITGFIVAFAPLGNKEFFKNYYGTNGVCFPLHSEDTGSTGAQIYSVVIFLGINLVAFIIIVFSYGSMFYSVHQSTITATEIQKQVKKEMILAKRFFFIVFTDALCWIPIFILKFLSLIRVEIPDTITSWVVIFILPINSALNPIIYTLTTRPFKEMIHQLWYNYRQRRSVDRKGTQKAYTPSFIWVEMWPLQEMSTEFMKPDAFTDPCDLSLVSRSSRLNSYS

B1: 0054 (protein)
chain: EVQLLESGGGLVQPGGSLRLSCAASGRYIDETAVAWFRQAPGKGREFVAGIGGGVDITYYADSVKGRFTISRDNSKNTLYLQMNSLRPEDTAVYYCAARPGRPLITSKVADLYPYWGQGTLVTVSSGGGGQGGGGQGGGGQGGGGQGGGGQSWMEEVIKLCGRELVRAQIAICGMSTWSGGGSGGSGGGQLYSALANKCCHVGCTKRSLARFC
For the molecule B1, the EC50 (nM), cAMP production in CHO-K1 cells with receptor overexpression worked out at 21.8 nM in assay [1]; 3040 nM with dog RXFP1 receptor (dog); 25.6 nM in assay [2]; 1350 nM in assay [3]; 23.4 nM in assay [4]; 10.5 nM with rat RXFP1 receptor (rat). Also, the EC50 (nM), cAMP production in THP1 cells, 1% HSA in assay [2] is 15.8 nM. The molecule also yielded an EC50 (nM), cAMP production in THP1 cells, without HSA in assay [2] of 10.3 nM.

Source of the values: US20250312444A1.
